Assay results reported in paper doi:10.1101/2023.04.01.535177 (bioRxiv, 2023).
Each block holds one molecule with its values, some of them ahead of it.

How the values were obtained:
Assay in all cases: SEC
[1] = molecular target: Parsonsia alboflavescens homospermidine synthase, single mutant D273N (VXXXN motif) (Parsonsia alboflavescens)
[2] = molecular target: Parsonsia alboflavescens homospermidine synthase, double mutant V269I D273N (IXXXN motif) (Parsonsia alboflavescens)
[3] = molecular target: Parsonsia alboflavescens homospermidine synthase, single mutant V269I (IXXXD motif) (Parsonsia alboflavescens)
SEC = molecular target: the molecule itself

stoichiometry N [1]: 4
Molecule: Parsonsia alboflavescens homospermidine synthase, single mutant D273N (VXXXN motif) (enzyme)

stoichiometry N [2]: 4
Molecule: Parsonsia alboflavescens homospermidine synthase, double mutant V269I D273N (IXXXN motif) (enzyme)

stoichiometry N [3]: 4
Molecule: Parsonsia alboflavescens homospermidine synthase, single mutant V269I (IXXXD motif) (enzyme)

B1: Parsonsia alboflavescens homospermidine synthase, wild type (VXXXD motif) (enzyme, UniProt A0A2P1M5T0 1-374, looked up)
chain: MGDDAIRQNFLDSARSNVFKALESLEGCKKIKGYDFNKGVNHRELLLSMVSTGFQASNLGDAIDVINQMRAWKLSDEPIPENCKEQEKDPKFRDSVRCKVFLGFTSNLISSGVRETIRYLAQHRMIDVLVTTAGGIEEDFIKCLAPTFKGDFSLPGAALRSKGLNRIGNLLVPNDNYCKFEDWIMPIFDKMLEEQLEEKVLWTPSRVIARLGKEINDESSYLYWAYKNKIPVYCPAITDGSIGDMLYFHSFRNPASLIVDIVQDVRNMDDEIVLAGLRKTGIIILGGGLPKHHICNANMMRNGADFAVFINTAQEFDGSDSGARPDEAISWGKIRSTAKHVKVHCDATIAFPLLVAETFAKGKSTWTKYLGYIY
stoichiometry N (SEC): 4
